The values that follow come from the supplement of paper PMC12042874.

± gives the uncertainty stated by the source.

The series is described as follows: amyloid nucleation score (Sup35N fusion, yeast selection) (log enrichment); library NNK1; higher = more nucleation; inactive = no reads after selection. The method, boiled down: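 Libraries of peptides of 20 random codons fused to Sup35N were expressed in psi-negative yeast and induced 24 hours with 100 μM copper sulfate. Selection was 7 days at 30°C on medium lacking adenine and uracil, and plasmid inserts were Illumina-sequenced before and after selection. Nucleation score is the DiMSum log enrichment of output over input reads, centred on the mode score of non-aggregating sequences, and sequences with under 100 input reads were left out.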
In turn, CLAGGYSGNAEGMIIETRAK showed an amyloid nucleation score of -0.171 ± 1.7. Substance CLCDAISYSGIIKDVDKVCE came in with an amyloid nucleation score of 0.875 ± 0.93. Turning to CLCMSC, the amyloid nucleation score was 0.108 ± 0.43. As for CLDNWLGGHNSLSSYSG, the amyloid nucleation score was 0.538 ± 0.37.

CLFWDSCYRKLLTIYDNM: the amyloid nucleation score is -0.941 ± 0.63. With CLGDTWWNMNKSGTEVVCPV the figure was 0.858 ± 1.1.

Regarding CLISP, the amyloid nucleation score entry was “inactive”.

As for CLMLAGRFIC, the amyloid nucleation score is -0.422 ± 0.56. CLNSDALDHW: the amyloid nucleation score stood at 1.17 ± 0.42. CLNTMWRKPVEAREM returned an amyloid nucleation score of 0.189 ± 1. CLPQLTDQPPKFHRLQFFCV returned an amyloid nucleation score of 0.348 ± 0.4.

On to CLRGLNAPLYNRCFAGILLG, for which the amyloid nucleation score was -0.6 ± 0.36. With CLSNM, the amyloid nucleation score result was “inactive”. As to CLVFWETECSA, the amyloid nucleation score was -0.323 ± 0.29.

On to CLVYSTYIDGQTLAKTF, for which the amyloid nucleation score was -0.761 ± 1.2. Then CLYAIKLCM, with 6.82 ± 0.043; and CMAGRNSFKLYMRRFNEENY, with “inactive”. Substance CMRFAPMMHANCHVKARWHR returned an amyloid nucleation score of 0.696 ± 0.6. CMRHHMSQHCIPGGPRCRGA yielded an amyloid nucleation score of -0.912 ± 0.65. With CMSIRWSCYPLNNQVVATEV, the amyloid nucleation score was found to be 0.044 ± 0.29. CMSRSYYYTSPKDPKEFNC registered an amyloid nucleation score of 0.56 ± 0.33.

In the case of CNFMVSYRISFMLRLIQYYV, the amyloid nucleation score was -0.938 ± 0.31.

CNKNNCWCYHCSYQVWHALY: the amyloid nucleation score is 0.381 ± 0.42. As for CNLNAGGKRWADRT, the amyloid nucleation score turned out to be 0.3 ± 0.85. For CNSFCGMHCGNV, the amyloid nucleation score was 0.238 ± 0.62. Then CNSRNITT, with -0.345 ± 0.67. As for CNSVDVVLISATACYSWSTL, the amyloid nucleation score came out at 0.552 ± 0.48. The substance CNYWRNRRWF showed an amyloid nucleation score of 1.48 ± 0.33.

Take CPDLGYACWYIINRIPSTWC: the amyloid nucleation score was -1.3 ± 1.2. For the substance CPGNIIYTFPIDVPKHG, the amyloid nucleation score came out at 0.641 ± 0.79. With CPLEDLIKRLNHLYVH the figure was 0.21 ± 0.6; with CPVCNTESTCRYPRVGKWDT, 3.01 ± 0.17; with CQPLLSMYLVHYTA, 0.116 ± 0.2. The substance CQSLPKFLHANVKYNSVSGA displayed an amyloid nucleation score of -0.16 ± 0.24. On to CRAQGFDASSHYCYLFLALS, for which the amyloid nucleation score was -0.427 ± 1.4. Consider CRGNDKVLPKIGATNCWLST, for which the amyloid nucleation score result is “inactive”.

Turning to CRIIPLYRKFLKHLTCHYIQ, the amyloid nucleation score is -0.092 ± 0.25. On to CRISTGNGVI, for which the amyloid nucleation score result was “inactive”. CRLGNEKGRLKSWQNRSNIC: the amyloid nucleation score was -0.22 ± 0.59. With CRLSNGV the figure was -0.392 ± 0.31. Consider CRMGMLYEISQC, for which the amyloid nucleation score stood at 0.743 ± 0.76.

In turn, CRSSVFKYVPVSNIFDYFSI had an amyloid nucleation score of 0.921 ± 0.84. Then CRSVVGVGSCRTGPEEGVYP, with -0.106 ± 1.7; and CRTHDKCKDSGHSRLNGYSG, with -0.299 ± 0.51; and CSCACCVELHQL, with 6.611 ± 0.062. Consider CSDFITLSMFV, for which the amyloid nucleation score amounted to 0.99 ± 0.66. As for CSFLELLWDVGRCSASQQCM, the amyloid nucleation score is -0.943 ± 1.7. Substance CSLSSRNDLGCIMVLLYAWI came in with an amyloid nucleation score of 0.605 ± 0.33. Regarding CSLTCVSWHMGSF, the amyloid nucleation score worked out at 2.15 ± 0.32. CSRANRKGECG returned an amyloid nucleation score of -0.62 ± 1.3.

CSRTRRSHSIECACCKYIFA gave an amyloid nucleation score of -0.343 ± 0.47. For CSRVVWLVIRLLEMWIEPRA, the amyloid nucleation score stood at 0.815 ± 0.73. The substance CSSMQFVACLNSAYGSSTAM registered an amyloid nucleation score of 0.027 ± 0.76. Consider CSTRGFGGD, for which the amyloid nucleation score is -0.921 ± 1.1. With CSYGARGIWATESIVANKSV the entry was “inactive”; with CSYPYGQSEDCGSRSGRGYA, 0.877 ± 1. On to CTADWLRDPRVGVRGPEGGG, for which the amyloid nucleation score was 0.273 ± 0.3.

Consider CTAWNVS, for which the amyloid nucleation score was -0.657 ± 1.7. Turning to CTAYYMLGGGRNLNHPLMWV, the amyloid nucleation score came out at 0.497 ± 0.61.

The substance CTDVNSQ showed an amyloid nucleation score of 0.033 ± 0.9. In the case of CTFTY, the amyloid nucleation score was 0.053 ± 1.1. CTGIWSLLSCTTFRHIATVV: the amyloid nucleation score was -0.469 ± 1.7.

Substance CTGPMD registered an amyloid nucleation score of 0.055 ± 0.57. Consider CTGSCVRRVCGGFIEADIRY, for which the amyloid nucleation score is -0.28 ± 0.41.

Take CTLSYCWWMAQYPDISRLIT: the amyloid nucleation score is -0.362 ± 0.74. Then CTSDHSSFAKFLLLTCCLLL, with 0.841 ± 0.92.

In turn, CTTLGLQPFRDWRFAGKLAR came in with an amyloid nucleation score of 0.049 ± 1.1. For CTYVLWRGMKGFR, the amyloid nucleation score was found to be 0.05 ± 0.88. Regarding CVCMVRYGVRAHR, the amyloid nucleation score was determined as 0.469 ± 0.64.

Substance CVDRRV yielded an amyloid nucleation score of 0.203 ± 0.56. CVFMRATLQK showed an amyloid nucleation score of 3.25 ± 0.15. Regarding CVKASLMMWVQFYIDSY, the amyloid nucleation score result was “inactive”. On to CVLCDGYFKSERLLNGWVM, for which the amyloid nucleation score was -0.641 ± 0.52. In the case of CVMNLYGGMPHAGRWTGF, the amyloid nucleation score came out at 4.33 ± 0.11. Turning to CVSHNVILRK, the amyloid nucleation score worked out at 2.4 ± 0.092.

Regarding CVTLCSNPWDQKRFICIYRH, the amyloid nucleation score was -0.021 ± 0.55.

CVVESMSIIMRRCSLS came in with an amyloid nucleation score of -0.861 ± 0.42. On to CVVFAVKGCAGGWTRFMLDN, for which the amyloid nucleation score was -0.268 ± 0.4. With CWASIEVLRRSDYGGFCHSV, the amyloid nucleation score worked out at 0.826 ± 0.6.

On to CWNVLNCMHAFRCGPMNQRR, for which the amyloid nucleation score stood at 0.831 ± 0.58. With CWPRG, the amyloid nucleation score was 0.326 ± 0.55. Then CWTCTSRVEWSPV, with -0.374 ± 0.74; and CWTLSDVLFDNNLFTMNMGP, with -0.291 ± 0.67.

Substance CYAFLDWAYVSEG displayed an amyloid nucleation score of 0.114 ± 0.28.

In the case of CYCLNAGVSMADHSVPPRVF, the amyloid nucleation score worked out at 0.912 ± 0.71. With CYCSEWNWRCNTELDVLFQS, the amyloid nucleation score was found to be 0.818 ± 0.4. CYGGWVYLLRIALCGEDSVI displayed an amyloid nucleation score of 0.58 ± 0.58. For CYHQFGV, the amyloid nucleation score result is “inactive”. In the case of CYKLGYGFVHFSAIMVNIIS, the amyloid nucleation score is -1.22 ± 1.7. In turn, CYLKGYA came in with an amyloid nucleation score of 0.853 ± 0.52. For CYMKNKLSFIM, the amyloid nucleation score result is “inactive”.

For CYRIDGSYYQLSCSYVYVRV, the amyloid nucleation score is -0.837 ± 1.1. For the substance CYVLRSRSCLVFLMVYRGRV, the amyloid nucleation score is 4.95 ± 0.073. DASGNYWGWKLWGDQGERGY: the amyloid nucleation score result was “inactive”. On to DASLQWYVDSLKFCWV, for which the amyloid nucleation score came to 0.18 ± 0.36. In turn, DASLVGLQLSHHSILFHCSM came in with an amyloid nucleation score of 0.021 ± 1.2. As for DCCGFNFYWISPRFHLRECL, the amyloid nucleation score was determined as 0.831 ± 0.27. DCMIVGLHHIKVRHSLFVRW gave an amyloid nucleation score of -0.128 ± 0.33. The substance DCRFNRGGFNNVR returned an amyloid nucleation score of 0.514 ± 0.31. DCYNLKQWRSCCDLAVASGG: the amyloid nucleation score worked out at 0.24 ± 0.88. For DDCESFEMRAFM, the amyloid nucleation score was determined as 1 ± 0.55. With DETQKPRVLCMLLLSKSTEN, the amyloid nucleation score turned out to be 0.558 ± 0.34. Consider DFGFLF, for which the amyloid nucleation score stood at 0.851 ± 0.37. Substance DFLDNVFVTSECHVN showed an amyloid nucleation score of 0.255 ± 0.6. With DFLMMSVLHHNNVSYS the figure was 1.52 ± 0.66. Then DFVMGYYVELWFMYASL, with 0.4 ± 0.21. As for DFWSYDDVVFGRC, the amyloid nucleation score was found to be 1.3 ± 0.6.

As for DGHGRYA, the amyloid nucleation score result was “inactive”. Consider DGIRSWENSMVIYGI, for which the amyloid nucleation score was -0.091 ± 0.4.

Take DGKHWTDYLVMY: the amyloid nucleation score came out at 1.5 ± 0.47. The substance DGLKFGFEINPAVRQ returned an amyloid nucleation score of 1.11 ± 0.48. Substance DGTVGSYCMIFWELYRDNFF displayed an amyloid nucleation score of -0.761 ± 1.2. Substance DHASGLVLLCLVWLGLMSLK had an amyloid nucleation score of 0.501 ± 0.43. DHGHCISPNTSYFMVDWFLK returned an amyloid nucleation score of 0.473 ± 0.39. Consider DIPYVFLLFLQECDNVFLCH, for which the amyloid nucleation score was determined as 2.54 ± 0.17. DIVRWLCPHRTK came in with an amyloid nucleation score of 1.23 ± 0.93.

As to DIWDTAAAPGCRCRGNS, the amyloid nucleation score is -0.363 ± 1.5. DLCFCTR yielded an amyloid nucleation score of -1.37 ± 2.7. Then DLCTNYQWFRAAYCYMSRVY, with 1.2 ± 0.98; and DLDCFRFVLSLGDFMGRCVS, with 0.266 ± 0.42.

In turn, DLFDFFRRRYHFRCFVSSIW gave an amyloid nucleation score of -1.52 ± 2.4.

Substance DLFFIG had an amyloid nucleation score of 0.188 ± 0.38. The substance DLILPRRLSYGYLPVLEGPS came in with an amyloid nucleation score of -0.222 ± 0.76. In turn, DLIRPLSCTRVLSPNFLCS showed an amyloid nucleation score of -0.54 ± 0.66.

With DLLETKWIPSLVYKSFESLW, the amyloid nucleation score was -0.137 ± 0.63. Then DLLTWDCLEHDVDMLLVGPN, with 0.152 ± 0.36; and DLRFCNASYVLWISDFAHAV, with -0.08 ± 0.41. For DLRFSTRLGHCISVFMRKIW, the amyloid nucleation score result is “inactive”. On to DLSDLFLYHFVIWTSVNYSY, for which the amyloid nucleation score was -0.562 ± 1.1. Turning to DLSKFGKHFCLLMHYGFPNH, the amyloid nucleation score is -0.3 ± 0.28. Substance DLSRDAIRSKSEGAVR showed an amyloid nucleation score of -1.24 ± 1.7. On to DLWWGRVRYG, for which the amyloid nucleation score was found to be 2.64 ± 0.097.

The substance DMEQAICEPSLFKIVGDNNL displayed an amyloid nucleation score of -0.186 ± 0.86. On to DMLFPAMRYAVHDVSVSAGN, for which the amyloid nucleation score came out at 0.582 ± 0.64.

As to DMLWKRWTIYYAFYFKAWGY, the amyloid nucleation score was determined as 1.08 ± 0.39.

Turning to DMQIWFLYDCI, the amyloid nucleation score entry is “inactive”. With DMVEMVHCSCF the figure was 1.49 ± 0.21; with DNFMSAGRLWSDSSADLIIT, 0.277 ± 0.79. In the case of DNQVLCYECRGYWMQTVHVL, the amyloid nucleation score was 0.069 ± 0.97. With DNRDYVALSFPRKLKWCYIS the figure was -0.834 ± 0.25; with DNSLYE, -2.11 ± 2.7.
